Measurements from the Immune Epitope Database (IEDB).

Legend:
HLA-A*24:03 [1] = assay: IEDB peptide-MHC binding, purified MHC/competitive/fluorescence; filed as Kd, often an IC50 or EC50 that approximates it; ≥ and ≤ were set here for values at or beyond the usual limits of such assays
HLA-B*46:01 [2] = assay: as above
HLA-B*39:01 = assay: as above
HLA-A*23:01 = assay: as above
HLA-B*15:01 [3] = assay: as above
HLA-B*51:01 = assay: as above
HLA-A*02:12 [4] = assay: as above
HLA-A*02:19 [5] = assay: as above
HLA-A*68:02 = assay: as above; settings: source organism: Bacillus anthracis str. Ames
HLA-A*26:01 [6] = assay: as above
HLA-A*69:01 [7] = assay: as above; settings: source organism: Bacillus anthracis str. Ames
HLA-A*02:03 = assay: as above
HLA-A*02:01 [8] = assay: as above
HLA-B*18:01 [9] = assay: as above
HLA-B*27:03 = assay: as above
HLA-B*57:01 = assay: as above
HLA-A*03:01 [10] = assay: as above
HLA-A*29:02 = assay: as above
HLA-A*02:11 [11] = assay: as above
HLA-B*15:17 = assay: as above; settings: source organism: Bacillus anthracis str. Ames
HLA-A*02:16 [12] = assay: as above; settings: source organism: Burkholderia vietnamiensis G4
HLA-B*46:01 [13] = assay: IEDB peptide-MHC binding, purified MHC/direct/fluorescence; filed as Kd, often an IC50 or EC50 that approximates it; ≥ and ≤ were set here for values at or beyond the usual limits of such assays; settings: source organism: Giardia lamblia ATCC 50803
HLA-B*15:01 [14] = assay: as above
HLA-B*07:02 = assay: as above
HLA-B*08:02 = assay: as above; settings: source organism: Giardia lamblia ATCC 50803
HLA-A*02:12 [15] = assay: as above; settings: source organism: Giardia lamblia ATCC 50803
HLA-A*24:02 = assay: as above; settings: source organism: Giardia lamblia ATCC 50803
HLA-A*02:19 [16] = assay: as above; settings: source organism: Giardia lamblia ATCC 50803
HLA-A*26:01 [17] = assay: as above
HLA-A*69:01 [18] = assay: as above
HLA-A*31:01 = assay: as above
HLA-A*02:01 [19] = assay: as above
HLA-B*18:01 [20] = assay: as above; settings: source organism: Giardia lamblia ATCC 50803
HLA-B*40:01 = assay: as above
HLA-A*02:16 [21] = assay: as above; settings: source organism: Giardia lamblia ATCC 50803
HLA-A*02:06 = assay: as above; settings: source organism: Giardia lamblia ATCC 50803
HLA-A*03:01 [22] = assay: as above
HLA-B*58:01 = assay: as above
HLA-A*11:01 = assay: as above
HLA-B*27:05 = assay: as above
HLA-A*02:11 [23] = assay: as above; settings: source organism: Giardia lamblia ATCC 50803
HLA-B*44:02 = assay: as above; settings: source organism: Giardia lamblia ATCC 50803
HLA-A*01:01 = assay: as above
HLA-A*02:50 = assay: IEDB peptide-MHC binding, purified MHC/competitive/fluorescence; filed as Kd, often an IC50 or EC50 that approximates it; ≥ and ≤ were set here for values at or beyond the usual limits of such assays
HLA-A*24:03 [24] = assay: IEDB peptide-MHC binding, purified MHC/direct/fluorescence; filed as Kd, often an IC50 or EC50 that approximates it; ≥ and ≤ were set here for values at or beyond the usual limits of such assays; settings: source organism: Klebsiella pneumoniae
HLA-B*08:01 = assay: as above; settings: source organism: Klebsiella pneumoniae
[25] = source organism: Bacillus anthracis str. Ames
[26] = source organism: Burkholderia vietnamiensis G4
[27] = source organism: Giardia lamblia ATCC 50803
[28] = source organism: Klebsiella pneumoniae

VILYFMYRK
Kd (HLA-A*24:03 [1]; [25]): ≥ 20 µM | Kd (HLA-B*46:01 [2]; [25]): ≥ 20 µM | Kd (HLA-B*39:01; [25]): ≥ 20 µM | Kd (HLA-A*23:01; [25]): ≥ 20 µM | Kd (HLA-B*15:01 [3]; [25]): ≥ 20 µM | Kd (HLA-B*51:01; [25]): ≥ 20 µM | Kd (HLA-A*02:12 [4]; [25]): ≥ 20 µM | Kd (HLA-A*02:19 [5]; [25]): ≥ 20 µM | Kd (HLA-A*68:02): ≥ 20 µM | Kd (HLA-A*26:01 [6]; [25]): ≥ 20 µM | Kd (HLA-A*69:01 [7]): ≥ 20 µM | Kd (HLA-A*02:03; [25]): ≥ 20 µM | Kd (HLA-A*02:01 [8]; [25]): ≥ 20 µM | Kd (HLA-B*18:01 [9]; [25]): ≥ 20 µM | Kd (HLA-B*27:03; [25]): ≥ 20 µM | Kd (HLA-B*57:01; [25]): ≥ 20 µM | Kd (HLA-A*03:01 [10]; [25]): 0.528 µM | Kd (HLA-A*29:02; [25]): ≥ 20 µM | Kd (HLA-A*02:11 [11]; [25]): ≥ 20 µM | Kd (HLA-B*15:17): ≥ 20 µM

GVNDTEAHA
Kd (HLA-A*24:03 [1]; [26]): ≥ 20 µM | Kd (HLA-B*46:01 [2]; [26]): ≥ 20 µM | Kd (HLA-B*39:01; [26]): ≥ 20 µM | Kd (HLA-A*23:01; [26]): ≥ 20 µM | Kd (HLA-B*15:01 [3]; [26]): ≥ 20 µM | Kd (HLA-B*51:01; [26]): ≥ 20 µM | Kd (HLA-A*02:12 [4]; [26]): ≥ 20 µM | Kd (HLA-A*02:19 [5]; [26]): ≥ 20 µM | Kd (HLA-A*26:01 [6]; [26]): ≥ 20 µM | Kd (HLA-A*02:03; [26]): ≥ 20 µM | Kd (HLA-A*02:01 [8]; [26]): ≥ 20 µM | Kd (HLA-B*18:01 [9]; [26]): ≥ 20 µM | Kd (HLA-A*02:16 [12]): 0.365 µM | Kd (HLA-B*27:03; [26]): ≥ 20 µM | Kd (HLA-B*57:01; [26]): ≥ 20 µM | Kd (HLA-A*03:01 [10]; [26]): ≥ 20 µM | Kd (HLA-A*29:02; [26]): ≥ 20 µM | Kd (HLA-A*02:11 [11]; [26]): ≥ 20 µM

YLDMVLAFL
Kd (HLA-B*46:01 [13]): ≥ 20 µM | Kd (HLA-B*15:01 [14]; [27]): ≥ 20 µM | Kd (HLA-B*07:02; [27]): ≥ 20 µM | Kd (HLA-B*08:02): ≥ 20 µM | Kd (HLA-A*02:12 [15]): ≤ 0.001 µM | Kd (HLA-A*24:02): ≥ 20 µM | Kd (HLA-A*02:19 [16]): ≤ 0.001 µM | Kd (HLA-A*26:01 [17]; [27]): ≥ 20 µM | Kd (HLA-A*69:01 [18]; [27]): ≥ 20 µM | Kd (HLA-A*31:01; [27]): ≥ 20 µM | Kd (HLA-A*02:01 [19]; [27]): 0.0185 µM | Kd (HLA-B*18:01 [20]): ≥ 20 µM | Kd (HLA-B*40:01; [27]): ≥ 20 µM | Kd (HLA-A*02:16 [21]): ≤ 0.001 µM | Kd (HLA-A*02:06): ≤ 0.001 µM | Kd (HLA-A*03:01 [22]; [27]): ≥ 20 µM | Kd (HLA-B*58:01; [27]): ≥ 20 µM | Kd (HLA-A*11:01; [27]): ≥ 20 µM | Kd (HLA-B*27:05; [27]): ≥ 20 µM | Kd (HLA-A*02:11 [23]): ≤ 0.001 µM | Kd (HLA-B*44:02): ≥ 20 µM | Kd (HLA-A*01:01; [27]): ≥ 20 µM | Kd (HLA-A*02:50; [27]): ≤ 0.0001 µM

LLQEKYGLI
Kd (HLA-A*24:03 [24]): ≥ 20 µM | Kd (HLA-B*15:01 [14]; [28]): ≥ 20 µM | Kd (HLA-B*07:02; [28]): ≥ 20 µM | Kd (HLA-A*26:01 [17]; [28]): ≥ 20 µM | Kd (HLA-A*69:01 [18]; [28]): ≥ 20 µM | Kd (HLA-A*31:01; [28]): ≥ 20 µM | Kd (HLA-A*02:01 [19]; [28]): 1.18 µM | Kd (HLA-B*40:01; [28]): ≥ 20 µM | Kd (HLA-B*08:01): 7.89 µM | Kd (HLA-A*03:01 [22]; [28]): ≥ 20 µM | Kd (HLA-B*58:01; [28]): ≥ 20 µM | Kd (HLA-A*11:01; [28]): ≥ 20 µM | Kd (HLA-B*27:05; [28]): ≥ 20 µM | Kd (HLA-A*01:01; [28]): ≥ 20 µM | Kd (HLA-A*02:50; [28]): 0.0177 µM
